Measured values reported in PMC9463278, “Development and Validation of Arc Nanobodies: New Tools for Probing Arc Dynamics and Function” (Neurochemical Research, 2022).

B1: mutant rat Arc (Arc^s113−119A) (natural protein, UniProt Q63053 1-396, looked up)
chain: MELDHMTTGGLHAYPAPRGGPAAKPNVILQIGKCRAEMLEHVRRTHRHLLTEVSKQVERELKGLHRSVGKLENNLDGYVPTGDSQRWKKSIKACLCRCQETIANLERWVKREAAAAAAAFYRLERWADRLESMGGKYPVGSEPARHTVSVGVGGPEPYCQEADGYDYTVSPYAITPPPAAGELPEQESVGAQQYQSWVPGEDGQPSPGVDTQIFEDPREFLSHLEEYLRQVGGSEEYWLSQIQNHMNGPAKKWWEFKQGSVKNWVEFKKEFLQYSEGTLSREAIQRELDLPQKQGEPLDQFLWRKRDLYQTLYVDAEEEEIIQYVVGTLQPKFKRFLRHPLPKTLEQLIQRGMEVQDGLEQAAEPSVTPLPTEDETEALTPALTSESVASDRTQPE
notes: Activity-regulated cytoskeleton-associated protein (Arc, Arg3.1), rat; residues of the oligomerization motif 113-MHVWREV-119 substituted to alanine; also called purified mutant Arc^s113−119A protein; activity-regulated cytoskeleton-associated protein; source: purified recombinant

Legend:
[1] = target: Arc NL (Rattus norvegicus) (UniProt Q63053); test: ITC; settings: cited from earlier work
[2] = target: the molecule itself; test: native gel or EMSA; different amounts of purified Arc^s113−119A in native sample buffer, native PAGE on 4-15% Tris-Glycine gels; bands detected by immunoblotting with ALFA-ArcNbs and anti-ALFA HRP-coupled sdAb

Row | Molecule | Kd [1] [nM] | binding result [2]
1 | stargazin (from UniProt Q71RJ2) | 34.9 | –
2 | B1 | – | binds
